The values below come from patent US20050153923A1, “Targeted drug delivery using EphA2 or EphA4 binding moieties” (priority 2003, published 2005).

Entries after “also recorded” stand apart in the source; their conditions may differ.

Test [1] has as its system MDA-MB-231 breast cancer cells. The test can be described thus: Tumor growth, MDA-MB-231 cells implanted orthotopically into athymic mice. The conditions noted are these: 6 mg/kg i.p. twice a week for 3 weeks; FIG. 7A. In kind it is in vivo. On the procedure: Total tumor volume was determined after sacrifice.
Test [2] deals with T1, EphA2-Ephrin A1-Fc-EA2 complex (Homo sapiens, UniProt P29317).
T1 construct: consisting of the extracellular domain of EphA2 linked to human IgG1 constant region (EphA2-Fc)
The test can be described thus: Displacement of biotinylated EA2 from EphA2-Ephrin A1-Fc complex by unlabeled competitor. In kind it is binding. Particulars: biotinylated EA2 10 μg/ml; FIG. 18B. On the procedure:
(A) EphA2-Fc was incubated with and bound to immobilized Ephrin A1-Fc. Labeled Ephrin A1-Fc (black), EA2 (white) or Eph099B-233.152 (grey) was incubated with the EphA2-Ephrin A1-Fc complex and amount of binding was measured. (B) EphA2-Fc was incubated with and bound to immobilized Ephrin A1-Fc. Labeled EA2 was then incubated with the EphA2-Ephrin A1 complex. Unlabeled competitor was incubated with EphA2-Ephrin A1-EA2 complex in the indicated amount. Competitors were Ephrin A1-Fc (black), EA2 (white) or Eph099B-233.152 (grey).
The EphA2-Ephrin A1-Fc complex was prepared as described above. Biotinylated EA2 (10 μg/ml) was then incubated with the complex for 30 min. Unlabeled competitor was incubated with EphA2-Ephrin A1-Fc-EA2 complex in the indicated amount. Unlabeled EA2 could displace the labeled EA2 at concentrations of 100 ng/ml or greater.

The target of another test is T2, EphA2-Fc (Homo sapiens, UniProt P29317).
T2 construct: consisted of the extracellular domain of human EphA2 linked to human immunoglobulin
The test can be described thus: Competitive ELISA: inhibition of labeled EA2 binding to EphA2-Fc. Particulars: unlabeled antibody, increasing concentrations; FIG. 1. On the procedure: The ability of labeled EA2 monoclonal antibody to bind EphA2-Fc was assayed by competitive ELISA in presence of either unlabeled monoclonal antibodies EA2 or Eph099B-208.261. Ratios of unlabeled to labeled antibody used in the assay are indicated on the x-axis.
Supernatants from bulk culture hybridomas were screened for immunoreactivity against EphA2 (Table 9, column 4) using standard molecular biological techniques (e.g., ELISA immunoassay). Supernatants were further screened for the ability to inhibit an EphA2 monoclonal antibody (EA2; ATCC deposit no. PTA-4380; see co-pending U.S. patent application Ser. No. 10/436,783, entitled “EphA2 Agonistic Monoclonal Antibodies and Methods of Use Thereof” filed May 12, 2003) from binding to EphA2. […] Additionally, many of the other antibodies could inhibit EA2 binding to EphA2 as well (Table 9, column 3).

For the next test, the system named is MCF-7^EphA2 cells. The test can be described thus: Soft agar colonization of MCF-7^EphA2 cells. It is filed as cell-based. Particulars: TAM 1 μM, EA2 10 μg/ml. On the procedure:
(B) MCF-7 (circles) or MCF-7^EphA2 cells (squares) were implanted into the mammary fatpad (n=15 mice per group) in the presence of supplemental estrogen.
MCF-7^EPhA2 cells were incubated in the presence of 3 μg/ml of EA2 for the time indicated prior to sample extraction and Western blot analyses with an EphA2-specific antibody (D7). (B) The membrane was stripped and re-probed with a β-catenin-specific antibody as a loading control.
Growth assays were conducted as follows. MCF-7^neo (control cells) or MCF7^EphA2 cells were seeded in 96-well plates. […] Colony formation in soft agar was performed as previously described (Zelinski et al., 2001, Cancer Res. 61: 2301-6) and scored microscopically, defining clusters of at least three cells as a positive. The data represent the average of ten separate high-power microscopic fields from each sample and representative of at least three separate experiments. Error bars represent the standard error of the mean of at least three different experiments as determined using Microsoft Excel software.
(§1) Growth MCF-7^EphA2 cells which had decreased EphA2 expression levels was assayed in soft agar.

The target of a further test is EphA2 (Homo sapiens, UniProt P29317). The test can be described thus: EphA2 expression in MCF-7^EphA2 cells after EA2 treatment (Western blot). In kind it is cell-based. On the procedure:
MCF-7^EPhA2 cells were incubated in the presence of 3 μg/ml of EA2 for the time indicated prior to sample extraction and Western blot analyses with an EphA2-specific antibody (D7).
Estrogen-sensitive breast cancer cells, MCF-7 cells, were transfected with and stably overexpressed human EphA2 (MCF-7^EphA2) (pNeoMSV-EphA2 provided by Dr. T. Hunter, Scripps Institute). Western blot analyses confirmed the ectopic overexpression of EphA2 in transfected cells relative to matched controls (data not shown).
as §1

EphA2, sequence (P29317 24-976): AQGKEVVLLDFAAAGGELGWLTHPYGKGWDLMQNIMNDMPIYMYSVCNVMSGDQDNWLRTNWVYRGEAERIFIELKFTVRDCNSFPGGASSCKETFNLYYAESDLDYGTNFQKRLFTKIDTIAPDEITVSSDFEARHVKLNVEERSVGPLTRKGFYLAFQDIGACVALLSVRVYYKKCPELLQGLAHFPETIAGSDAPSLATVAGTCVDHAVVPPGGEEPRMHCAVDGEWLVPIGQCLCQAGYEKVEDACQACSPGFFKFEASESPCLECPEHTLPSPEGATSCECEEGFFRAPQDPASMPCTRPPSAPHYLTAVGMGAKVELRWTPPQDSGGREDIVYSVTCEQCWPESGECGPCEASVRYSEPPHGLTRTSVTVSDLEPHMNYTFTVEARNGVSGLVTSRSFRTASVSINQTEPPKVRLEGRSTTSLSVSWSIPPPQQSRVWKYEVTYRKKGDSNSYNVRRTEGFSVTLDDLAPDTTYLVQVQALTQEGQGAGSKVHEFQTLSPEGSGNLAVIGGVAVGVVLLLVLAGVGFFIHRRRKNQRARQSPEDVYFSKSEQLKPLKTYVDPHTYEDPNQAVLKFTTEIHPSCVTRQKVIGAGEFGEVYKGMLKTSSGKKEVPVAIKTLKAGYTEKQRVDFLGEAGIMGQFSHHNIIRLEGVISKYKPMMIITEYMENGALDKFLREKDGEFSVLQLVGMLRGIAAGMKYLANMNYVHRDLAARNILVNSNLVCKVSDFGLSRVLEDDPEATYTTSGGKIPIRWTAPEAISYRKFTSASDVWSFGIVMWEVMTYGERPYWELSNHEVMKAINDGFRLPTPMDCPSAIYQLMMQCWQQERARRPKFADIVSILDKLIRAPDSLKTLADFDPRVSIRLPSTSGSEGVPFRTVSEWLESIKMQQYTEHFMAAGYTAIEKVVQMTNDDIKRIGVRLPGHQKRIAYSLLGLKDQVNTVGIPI
T2 sequence (P29317 24-537 limits assumed): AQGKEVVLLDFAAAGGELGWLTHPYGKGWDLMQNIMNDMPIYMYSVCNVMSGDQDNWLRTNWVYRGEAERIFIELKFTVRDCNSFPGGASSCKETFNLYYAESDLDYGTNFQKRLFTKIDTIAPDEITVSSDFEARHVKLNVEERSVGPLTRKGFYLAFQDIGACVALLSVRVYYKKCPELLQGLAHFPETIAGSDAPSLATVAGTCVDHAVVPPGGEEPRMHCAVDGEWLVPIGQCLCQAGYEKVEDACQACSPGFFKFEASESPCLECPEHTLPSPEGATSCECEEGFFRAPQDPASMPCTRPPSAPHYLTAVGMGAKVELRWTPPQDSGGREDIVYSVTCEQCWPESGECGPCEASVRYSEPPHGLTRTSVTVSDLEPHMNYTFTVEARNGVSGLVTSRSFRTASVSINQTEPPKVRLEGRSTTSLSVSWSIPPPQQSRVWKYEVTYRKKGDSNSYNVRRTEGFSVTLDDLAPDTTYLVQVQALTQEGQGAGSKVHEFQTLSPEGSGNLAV
T1 sequence (P29317 24-537 limits assumed): as above
T1 sequence (P20827 19-182 partner limits assumed): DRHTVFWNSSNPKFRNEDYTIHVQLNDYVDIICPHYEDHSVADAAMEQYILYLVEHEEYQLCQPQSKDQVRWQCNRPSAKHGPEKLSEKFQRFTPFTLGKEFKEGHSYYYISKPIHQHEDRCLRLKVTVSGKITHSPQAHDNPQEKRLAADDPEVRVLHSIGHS

B1: EA2: EphA2 agonistic monoclonal antibody; hybridoma strain EA2.31, ATCC PTA-4380 (antibody, V domains shown)
VH: DVKLVESGGGLVKPGGSLKLSCAASGFTFSSYTMSWVRQTPEKRLEWVATISSGGTYTYYPDSVKGRFTISRDNAKNTLYLQMSSLKSEDTAMYYCTREAIFTYWGQGTLVTVSA
VL: DIKMTQSPSSMYASLGERVTITCKASQDINNYLSWFQQKPGKSPKTLIYRANRLVDGVPSRFSGSGSGQDYSLTISSLEYEDMGIYYCLKYDEFPYTFGGGTKLEIK
With B1, in test [1], the “Tumor growth, MDA-MB-231 implanted orthotopically” value was “inhibited”. Further, the “Concentration of unlabeled competitor displacing labeled EA2” value in test [2] was at least 100 ng/mL. Besides, the “Competition with labeled EA2 for binding to EphA2-Fc” value in the test with EphA2-Fc was “could decrease the amount of labeled EA2 binding to EphA2-Fc”. In addition, the “Soft agar colonization response / tamoxifen sensitivity, MCF-7^EphA2 cells” value with MCF-7^EphA2 cells (1 μM 17β-estradiol, FIGS. 11A, 13C (11A also MCF-7)) is reported as “restored a phenotype that was comparable to control MCF-7 cells; also recorded: decreases malignant growth; also recorded: increased the sensitivity of MCF-7^EphA2 cells to tamoxifen”. Besides, in the test with MCF-7^EphA2 cells (14 days), the “Inhibition / decrease of soft agar colonization, MCF-7^EphA2 cells” value came out at 19%. In addition, the “Time EphA2 remained undetectable after EA2 treatment” value with EphA2 (3 μg/ml EA2) was at least 24 h. In the test with EphA2 (3 μg/ml EA2, FIG. 13A), the “EphA2 activation and expression level after EA2 treatment” value was “induced EphA2 activation and subsequent degradation; also recorded: Decreased levels of EphA2 expression were observed within two hours”.
